Assay results published in patent publication US11708423B2, “Chimeric engulfment receptor molecules and methods of use” (CERO THERAPEUTICS, INC., priority 2017, dated 2023).

Assays:
[1] = system: H1975 lung adenocarcinoma cells; assay: LDH assay, H1975 cells, 48 hours co-culture with 1 μM Osimeritinib; type: cell-based; conditions: E:T 1:1, 48 hours, CD4+ T cells
From the text: CER30 comprises a Tim4 binding domain, Tim4 transmembrane domain, and an engulfment signaling domain comprising a primary engulfment signaling domain comprising a TRAF2 signaling domain. CER30 has a polypeptide sequence as set forth in SEQ ID NO:96. CER110 has a polypeptide sequence of SEQ ID NO:125 and comprises a Tim4 binding domain, Tim4 transmembrane domain, and an engulfment signaling domain comprising a primary engulfment signaling domain comprising a TRAF6 signaling domain and a secondary engulfment signaling domain comprising a DAP12 signaling domain. CER112 has a polypeptide sequence of SEQ ID NO:128 and comprises a Tim4 binding domain, Tim4 transmembrane domain, and an engulfment signaling domain comprising a primary engulfment signaling domain comprising a TRAF6 signaling domain and a secondary engulfment signaling domain comprising a NFAM1 signaling domain. CER127 has a polypeptide sequence of SEQ ID NO:175 and comprises a Tim4 binding domain, Tim4 transmembrane domain, and an engulfment signaling domain comprising a primary engulfment signaling domain comprising a TRAF2 signaling domain and a secondary engulfment signaling domain comprising a TLR2 signaling domain. H1975 cells are more resistant to EGFR inhibitors, so Osimeritinib was used at slightly higher concentration. H1975 lung adenocarcinoma cells harboring an EGFR mutation were co-cultured with CER-expressing or mock-transduced (vector only) CD4+ T cells with 1 μM of Osimeritinib. After 48 hours of co-culture at a 1:1 effector:target cell ratio, T cells were washed away, and the number of viable H1975 cells was quantified using a calorimetric LDH assay (FIG. 57). Cell viability experiments were performed in triplicate and presented as % of control.

SCC152 cells = assay: Phagocytic activity of tandem expression cassette transduced CD8+ T cells; type: cell-based, human
Description: Phagocytic activity of tandem expression cassette transduced CD8+ T cells was detected by co-culturing tandem expression cassette transduced CD8+ T cells with SCC152 cells for 6 hours at a 1:1 ratio. Phagocytic events were visualized and quantified using KEYENCE BZ-X710 fluorescence microscope, 20X objective and hybrid capture software.

| Molecule | killing of H1975 cells (LDH) [1] | phagocytosis of SCC152 cells (SCC152 cells; CD8+ T cells, 6 hours, 1:1 ratio) | dependence of engulfment of SCC152 cells on Racl (SCC152 cells; Racl inhibitor NSC23766 (50 μM), data not shown) |
| --- | --- | --- | --- |
| CER112: Tim4 binding and transmembrane domains, truncated Traf6 primary and NFAM1 secondary signaling domains; SEQ ID NO:128 (protein, CER112 chimeric engulfment receptor) MSKGLLLLWLVTELWWLYLTPAASEDTIIGFLGQPVTLPCHYLSWSQSRNSMCWGKGSCPNSKCNAELLRTDGTRIISRKSTKYTLLGKVQFGEVSLTISNTNRGDSGVYCCRIEVPGWFNDVKKNVRLELRRATTTKKPTTTTRPTTTPYVTTTTPELLPTTVMTTSVLPTTTPPQTLATTAFSTAVTTCPSTTPGSFSQETTKGSAFTTESETLPASNHSQRSMMTISTDIAVLRPTGSNPGILPSTSQLTTQKTTLTTSESLQKTTKSHQINSRQTILIIACCVGFVLMVLLFLAFLMSLLNCENSCGSSQSESDCCVAMASSCSAVTKDDSVGGTASTGNLSSSFMEEIQGYDVEFDPPLESKYECPICLMALREAVQTPCGHRFCKACIIKSIRDAGHKCPVDNEILLENQLFPDNFAKREILSLMVKCPNEGCLHKMELRHLEDHQAHCEFALMDCPQCQRPFQKFHINIHILKDCPRRQVSCDNCAASMAFEDKEIHDQNCPLANVICEYCNTILIREQMPNHYDLDCPTAPIPCTFSTFGCHEKMQRNHLARHLQENTQSHMRMLALWNKKRMRGPGKDPTRKCPDPRSASSPKQHPSESVYTALQRRETEVYACIENEDGSSPTAKQSPLSQERPHRFEDDGELNLVYENL | synergistic killing of H1975 lung adenocarcinoma cells upon EGFR inhibition | – | – |
| CER120: Tim4 binding and transmembrane domains, TLR1 primary and DAP12 secondary signaling domains; SEQ ID NO:147 (protein, CER120 protein) MSKGLLLLWLVTELWWLYLTPAASEDTIIGFLGQPVTLPCHYLSWSQSRNSMCWGKGSCPNSKCNAELLRTDGTRIISRKSTKYTLLGKVQFGEVSLTISNTNRGDSGVYCCRIEVPGWFNDVKKNVRLELRRATTTKKPTTTTRPTTTPYVTTTTPELLPTTVMTTSVLPTTTPPQTLATTAFSTAVTTCPSTTPGSFSQETTKGSAFTTESETLPASNHSQRSMMTISTDIAVLRPTGSNPGILPSTSQLTTQKTTLTTSESLQKTTKSHQINSRQTILIIACCVGFVLMVLLFLAFLSYLDLPWYLRMVCQWTQTRRRARNIPLEELQRNLQFHAFISYSGHDSFWVKNELLPNLEKEGMQICLHERNFVPGKSIVENIITCIEKSYKSIFVLSPNFVQSEWCHYELYFAHHNLFHEGSNSLILILLEPIPQYSIPSSYHKLKSLMARRTYLEWPKEKSKRGLFWANLRAAINIKLTEQAKKYFLGRLVPRGRGAAEAATRKQRITETESPYQELQGQRSDVYSDLNTQRPYYK | synergistic killing of H1975 lung adenocarcinoma cells upon EGFR inhibition | – | – |
| CER29−HPV16 E7 TCR: tandem expression cassette: CER29, T2A peptide, HPV16 E7 specific TCR; SEQ ID NO:169 (protein, CER29_T2A_HPV16_E7_TCR tandem cassette) MSKGLLLLWLVTELWWLYLTPAASEDTIIGFLGQPVTLPCHYLSWSQSRNSMCWGKGSCPNSKCNAELLRTDGTRIISRKSTKYTLLGKVQFGEVSLTISNTNRGDSGVYCCRIEVPGWFNDVKKNVRLELRRATTTKKPTTTTRPTTTPYVTTTTPELLPTTVMTTSVLPTTTPPQTLATTAFSTAVTTCPSTTPGSFSQETTKGSAFTTESETLPASNHSQRSMMTISTDIAVLRPTGSNPGILPSTSQLTTQKTTLTTSESLQKTTKSHQINSRQTILIIACCVGFVLMVLLFLAFLMSLLNCENSCGSSQSESDCCVAMASSCSAVTKDDSVGGTASTGNLSSSFMEEIQGYDVEFDPPLESKYECPICLMALREAVQTPCGHRFCKACIIKSIRDAGHKCPVDNEILLENQLFPDNFAKREILSLMVKCPNEGCLHKMELRHLEDHQAHCEFALMDCPQCQRPFQKFHINIHILKDCPRRQVSCDNCAASMAFEDKEIHDQNCPLANVICEYCNTILIREQMPNHYDLDCPTAPIPCTFSTFGCHEKMQRNHLARHLQENTQSHMRMLALEGGGEGRGSLLTCGDVEENPGPMAPGLLCWALLCLLGAGLVDAGVTQSPTHLIKTRGQQVTLRCSPKSGHDTVSWYQQALGQGPQFIFQYYEEEERQRGNFPDRFSGHQFPNYSSELNVNALLLGDSALYLCASSLGWRGGRYNEQFFGPGTRLTVLEDLRNVTPPKVSLFEPSKAEIANKQKATLVCLARGFFPDHVELSWWVNGKEVHSGVCTDPQAYKESNYSYCLSSRLRVSATFWHNPRNHFRCQVQFHGLSEEDKWPEGSPKPVTQNISAEAWGRADCGITSASYQQGVLSATILYEILLGKATLYAVLVSTLVVMAMVKRKNSRAKRSGSGATNFSLLKQAGDVEENPGPMWGVFLLYVSMKMGGTTGQNIDQPTEMTATEGAIVQINCTYQTSGFNGLFWYQQHAGEAPTFLSYNVLDGLEEKGRFSSFLSRSKGYSYLLLKELQMKDSASYLCASVDGNNRLAFGKGNQVVVIPNIQNPEPAVYQLKDPRSQDSTLCLFTDFDSQINVPKTMESGTFITDKCVLDMKAMDSKSNGAIAWSNQTSFTCQDIFKETNATYPSSDVPCDATLTEKSFETDMNLNFQNLLVIVLRILLLKVAGFNLLMTLRLWSS | – | capable of phagocytosing SCC152 cells | Racl-dependent manner |
| CER110: Tim4 binding and transmembrane domains, truncated Traf6 primary and DAP12 secondary signaling domains; SEQ ID NO:125 (protein, CER110 chimeric engulfment receptor) MSKGLLLLWLVTELWWLYLTPAASEDTIIGFLGQPVTLPCHYLSWSQSRNSMCWGKGSCPNSKCNAELLRTDGTRIISRKSTKYTLLGKVQFGEVSLTISNTNRGDSGVYCCRIEVPGWFNDVKKNVRLELRRATTTKKPTTTTRPTTTPYVTTTTPELLPTTVMTTSVLPTTTPPQTLATTAFSTAVTTCPSTTPGSFSQETTKGSAFTTESETLPASNHSQRSMMTISTDIAVLRPTGSNPGILPSTSQLTTQKTTLTTSESLQKTTKSHQINSRQTILIIACCVGFVLMVLLFLAFLMSLLNCENSCGSSQSESDCCVAMASSCSAVTKDDSVGGTASTGNLSSSFMEEIQGYDVEFDPPLESKYECPICLMALREAVQTPCGHRFCKACIIKSIRDAGHKCPVDNEILLENQLFPDNFAKREILSLMVKCPNEGCLHKMELRHLEDHQAHCEFALMDCPQCQRPFQKFHINIHILKDCPRRQVSCDNCAASMAFEDKEIHDQNCPLANVICEYCNTILIREQMPNHYDLDCPTAPIPCTFSTFGCHEKMQRNHLARHLQENTQSHMRMLAYFLGRLVPRGRGAAEAATRKQRITETESPYQELQGQRSDVYSDLNTQRPYYK | synergistic killing of H1975 lung adenocarcinoma cells upon EGFR inhibition | – | – |
